The values that follow come from patent US20250320281A1.

By IC50 is commonly meant the midpoint of a concentration-inhibition curve.

What all share (assay): cell-based or functional assay
The target of assay [1] is HIV-1 Env of isolate MGRM-AG-002 (HIV-1).
Assay [2] deals with HIV-1 Env of isolate APV_13 (subtype B pseudovirus) (HIV-1).
In assay [3] the target is HIV-1 Env of isolate MGRM-AE-008 (HIV-1).
The target in assay [4] is HIV-1 Env of isolate NL43 (subtype B pseudovirus) (HIV-1).
For assay [5], the target named is HIV-1 Env of isolate MGRM-F1-015 (HIV-1).
Assay [6] deals with HIV-1 Env of isolate MGRM-D-011 (pseudovirus) (HIV-1).
In assay [7] the target is HIV-1 Env of isolate 97ZA012 (HIV-1).
For assay [8], the target named is HIV-1 Env of isolate MGRM-F1-018 (HIV-1).
For assay [9], the target named is HIV-1 Env of isolate MGRM-D-004 (pseudovirus) (HIV-1).
For assay [10], the target named is HIV-1 Env of isolate MGRM-D-019 (pseudovirus) (HIV-1).
The target of assay [11] is HIV-1 Env of isolate MGRM-D-022 (pseudovirus) (HIV-1).
In assay [12] the target is HIV-1 Env of pseudovirus isolate MGRM-G-024 (HIV-1).
The target of assay [13] is HIV-1 94UG103 envelope glycoprotein (Env) on pseudovirus (HIV-1).
Assay [14] addresses HIV-1 92BR020 Env (pseudovirus) (HIV-1).
In assay [15] the target is HIV-1 93UG077 envelope glycoprotein (Env) on pseudovirus (HIV-1).
The target in assay [16] is HIV-1 93IN905 Env (pseudovirus, clade C) (HIV-1).
Assay [17] concerns the target HIV-1 Env of isolate APV-13 (HIV-1).
In assay [18] the target is HIV-1 Env of isolate MGRM-C-002 (subtype C) (HIV-1).
In assay [19] the target is HIV-1 Env of isolate NL43 (subtype B) (HIV-1).
Assay [20] concerns the target HIV-1 Env of isolate 98CN006 (HIV-1).
The target of assay [21] is HIV-1 Env of isolate MG RM-D-019 (HIV-1).
Assay [22] concerns the target HIV-1 Env of isolate JRCSF (subtype B) (HIV-1) (UniProt P20871).
Assay [23] deals with HIV-1 Env of isolate MGRM-A-003 (HIV-1).
Assay [24] has as its target HIV-1 Env of isolate MGRM-AG-012 (subtype AG) (HIV-1).
The target of assay [25] is HIV-1 Env of isolate 92WR009 (HIV-1).
Assay [26] has as its target HIV-1 Env of isolate MGRM-C-005 (subtype C) (HIV-1).
The target of assay [27] is HIV-1 Env of isolate 94UG103 (HIV-1).
Assay [28] has as its target HIV-1 Env of isolate MGRM-AG-002 (subtype AG) (HIV-1).

5329_C19 (PGT-136) (antibody), sequence (VH): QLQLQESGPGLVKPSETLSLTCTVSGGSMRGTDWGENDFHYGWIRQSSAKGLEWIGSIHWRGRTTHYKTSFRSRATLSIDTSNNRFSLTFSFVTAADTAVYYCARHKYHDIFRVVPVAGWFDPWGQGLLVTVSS
5329_C19 (PGT-136) (antibody), sequence (VL): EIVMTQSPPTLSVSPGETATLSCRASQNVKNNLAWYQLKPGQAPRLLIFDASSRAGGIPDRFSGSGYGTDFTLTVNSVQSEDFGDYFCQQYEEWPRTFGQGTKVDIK

In the case of 4838_L06 (PGT-121) (antibody), the half-maximal inhibitory concentration (IC50) in assay [1] and in assay [3] was greater than 50 µg/mL each time. Also, the IC50 (µg/mL), pseudovirus neutralization in assay [2] is 0.251 µg/mL; in assay [4], greater than 50 µg/mL; in assay [5], 28.4 µg/mL; in assay [8], 0.04 µg/mL. The IC50, pseudovirus neutralization in [6] is 0.018 µg/mL; in [9], greater than 50 µg/mL; in assay [10], greater than 50 µg/mL; in assay [11], greater than 50 µg/mL. In addition, in assay [7], the neutralization IC50 worked out at 0.002 µg/mL.

Take 4858_P08 (PGT-123) (antibody): the IC50 (µg/mL), pseudovirus neutralization was 0.032 µg/mL in assay [12]; 0.138 µg/mL in assay [2]; greater than 50 µg/mL in assay [4]; greater than 50 µg/mL in [5]; 0.054 µg/mL in [8]. Moreover, the neutralization IC50 came to 0.846 µg/mL in assay [13], 0.0303 µg/mL in assay [15] and 0.002 µg/mL in assay [7]. In addition, the neutralization IC80 came to 3.29 µg/mL in [13] and 0.143 µg/mL in [15]. The neutralization IC90 in assay [13] was 8.56 µg/mL; in assay [15], 0.35 µg/mL. Further, the neutralization IC95 in assay [13] is greater than 10 µg/mL; in assay [15], 0.78 µg/mL. The IC50 in assay [1] and in assay [3] was greater than 50 µg/mL in each case. Further, the IC50, pseudovirus neutralization was 0.012 µg/mL in assay [6], greater than 50 µg/mL in assay [9], greater than 50 µg/mL in assay [10] and greater than 50 µg/mL in assay [11]. Besides, the neutralization IC50 (pseudovirus) in assay [14] came out at 0.013 µg/mL. Further, in assay [16], the IC50 neutralization worked out at 0.0071 µg/mL.

For the substance 4877_D15 (PGT-122) (antibody), the IC50 (µg/mL), pseudovirus neutralization was 0.033 µg/mL in [12]; 0.778 µg/mL in assay [2]; greater than 50 µg/mL in assay [4]; 31.4 µg/mL in assay [5]; 0.563 µg/mL in assay [8]. In addition, the IC50 in [1] and in assay [3] was greater than 50 µg/mL throughout. The IC50, pseudovirus neutralization in assay [6] was 0.019 µg/mL; in [9] it was greater than 50 µg/mL; in [10] it was greater than 50 µg/mL; in assay [11], greater than 50 µg/mL. In [14], the neutralization IC50 (pseudovirus) is 0.0337 µg/mL. In addition, in [7], the neutralization IC50 was determined as 0.004 µg/mL. Moreover, the IC50 neutralization in assay [16] was 0.0138 µg/mL.

As for 5123_A06 (PGT-125) (antibody), the IC50 (µg/mL), pseudovirus neutralization in assay [12] is greater than 50 µg/mL; in assay [2] it was 0.007 µg/mL; in assay [4] it was greater than 50 µg/mL; in assay [5], greater than 50 µg/mL; in assay [8], greater than 50 µg/mL. Moreover, the IC50 in assay [1] and in assay [3] was greater than 50 µg/mL in each case. Moreover, the IC50, pseudovirus neutralization in [6] worked out at 0.008 µg/mL; in assay [9], 0.371 µg/mL; in [10], 0.049 µg/mL; in assay [11] it was 0.04 µg/mL. This substance also yielded a neutralization IC50 (pseudovirus) in assay [14] of 0.0214 µg/mL. The same substance had a neutralization IC50 in [7] of 2.46 µg/mL. In addition, the IC50 neutralization in assay [16] came to 0.0137 µg/mL.

With 5141_B17 (PGT-126) (antibody), the IC50 (µg/mL), pseudovirus neutralization in assay [12] was greater than 50 µg/mL; in [2], 0.012 µg/mL; in assay [4] it was greater than 50 µg/mL; in assay [5], greater than 50 µg/mL; in [8], 14.9 µg/mL. Moreover, the IC50, pseudovirus neutralization is 0.0091 µg/mL in [13]; 0.009 µg/mL in assay [6]; 0.0256 µg/mL in [15]; greater than 50 µg/mL in assay [9]; greater than 50 µg/mL in assay [10]; greater than 50 µg/mL in assay [11]. Moreover, the values for the IC80 (pseudovirus neutralization) in [13] and in assay [15] were 0.0316 µg/mL and 0.102 µg/mL, respectively. The IC90 (pseudovirus neutralization) in assay [13] was determined as 0.0655 µg/mL; in assay [15], 0.238 µg/mL. Moreover, the figures for the IC95 (pseudovirus neutralization) in [13] and in assay [15] were 0.128 µg/mL and 0.577 µg/mL, respectively. For the same substance, the IC50 in assay [1] and in assay [3] was greater than 50 µg/mL each time. In addition, the neutralization IC50 (pseudovirus) in assay [14] was 0.0163 µg/mL. Besides, the neutralization IC50 in assay [7] is 0.042 µg/mL. This substance came in with an IC50 neutralization in assay [16] of 0.0194 µg/mL.

Turning to 5145_B14 (PGT-127) (antibody), the IC50 (µg/mL), pseudovirus neutralization in [12] was greater than 50 µg/mL; in assay [2] it was 0.026 µg/mL; in assay [4], greater than 50 µg/mL; in [5], greater than 50 µg/mL; in assay [8] it was 3.59 µg/mL. Besides, the IC50 in assay [1] and in [3] was greater than 50 µg/mL each time. The IC50, pseudovirus neutralization in [6] was 0.015 µg/mL; in [9], greater than 50 µg/mL; in assay [10], greater than 50 µg/mL; in assay [11], greater than 50 µg/mL. Moreover, the neutralization IC50 in [7] was greater than 50 µg/mL.

In assay [17], 5147_N06 (PGT-130) (antibody) yielded a neutralization IC50 of 0.052 µg/mL. Moreover, the IC50 (µg/mL), pseudovirus neutralization in assay [12] is 5.84 µg/mL; in assay [20], 0.258 µg/mL; in assay [21] it was greater than 50 µg/mL; in assay [24], greater than 50 µg/mL; in assay [28], greater than 50 µg/mL. Moreover, the IC50 neutralization in assay [18] was greater than 50 µg/mL; in assay [19], greater than 50 µg/mL; in assay [22] it was 0.01 µg/mL; in [16], 0.0182 µg/mL; in assay [26] it was 0.935 µg/mL. Also, the results for the IC50 in assay [23], in assay [25] and in assay [27] were greater than 50 µg/mL, 1.27 µg/mL and 1.4 µg/mL, respectively. For the same substance, the Neutralization by PGT-130, IC50 in [14] amounted to 1.12 µg/mL. This substance displayed a Neutralization by PGT-130, IC80 in [14] greater than 10 µg/mL. Also, the Neutralization by PGT-130, IC90 in [14] is greater than 10 µg/mL. This substance came in with a Neutralization by PGT-130, IC95 in [14] greater than 10 µg/mL. For the same substance, in assay [14], the neutralization IC50 (pseudovirus) worked out at 1.12 µg/mL.

In [17], 5329_C19 (PGT-136) (antibody) returned a neutralization IC50 greater than 50 µg/mL. For the same substance, the IC50 (µg/mL), pseudovirus neutralization in [12] is 0.152 µg/mL; in [20] it was 0.406 µg/mL; in assay [21] it was greater than 50 µg/mL; in assay [24], greater than 50 µg/mL; in assay [28] it was greater than 50 µg/mL. The IC50 neutralization in assay [18] was greater than 50 µg/mL; in [19] it was 27.7 µg/mL; in assay [22], greater than 50 µg/mL; in [16] it was 0.0135 µg/mL; in assay [26], greater than 50 µg/mL. The IC50 in assay [23], in [25] and in assay [27] was greater than 50 µg/mL throughout. The substance further came in with a neutralization IC50 (pseudovirus) in assay [14] greater than 10 µg/mL.

Substance 5343_B08 (PGT-135) (antibody) had a neutralization IC50 in [17] of 0.716 µg/mL. The IC50 (µg/mL), pseudovirus neutralization in assay [12] was 0.062 µg/mL; in [20], 0.429 µg/mL; in assay [21] it was greater than 50 µg/mL; in [24] it was 41.9 µg/mL; in assay [28] it was greater than 50 µg/mL. The IC50 neutralization in [18] was greater than 50 µg/mL; in [19], 8.03 µg/mL; in [22], 0.131 µg/mL; in [16] it was 0.0183 µg/mL; in [26], greater than 50 µg/mL. Besides, the IC50 in assay [23], in assay [25] and in assay [27] was greater than 50 µg/mL throughout. Besides, the neutralization IC50 (pseudovirus) in [14] came to 0.104 µg/mL.
